Consider 1 variant from IntAct's records for PubMed 21455181.

Sequences and labels used below:
B1: Sharpin (Homo sapiens), Q9H0F6 (parent)
chain: MAPPAGGAAAAASDLGSAAVLLAVHAAVRPLGAGPDAEAQLRRLQLSADPERPGRFRLELLGAGPGAVNLEWPLESVSYTIRGPTQHELQPPPGGPGTLSLHFLNPQEAQRWAVLVRGATVEGQNGSKSNSPPALGPEACPVSLPSPPEASTLKGPPPEADLPRSPGNLTEREELAGSLARAIAGGDEKGAAQVAAVLAQHRVALSVQLQEACFPPGPIRLQVTLEDAASAASAASSAHVALQVHPHCTVAALQEQVFSELGFPPAVQRWVIGRCLCVPERSLASYGVRQDGDPAFLYLLSAPREAPATGPSPQHPQKMDGELGRLFPPSLGLPPGPQPAASSLPSPLQPSWSCPSCTFINAPDRPGCEMCSTQRPCTWDPLAAAST

The assay covers variants of B1. Conditions: with rnf31_human RNF31, Q96EP0.
rnf31_human RNF31, Q96EP0, sequence (Q96EP0 whole entry): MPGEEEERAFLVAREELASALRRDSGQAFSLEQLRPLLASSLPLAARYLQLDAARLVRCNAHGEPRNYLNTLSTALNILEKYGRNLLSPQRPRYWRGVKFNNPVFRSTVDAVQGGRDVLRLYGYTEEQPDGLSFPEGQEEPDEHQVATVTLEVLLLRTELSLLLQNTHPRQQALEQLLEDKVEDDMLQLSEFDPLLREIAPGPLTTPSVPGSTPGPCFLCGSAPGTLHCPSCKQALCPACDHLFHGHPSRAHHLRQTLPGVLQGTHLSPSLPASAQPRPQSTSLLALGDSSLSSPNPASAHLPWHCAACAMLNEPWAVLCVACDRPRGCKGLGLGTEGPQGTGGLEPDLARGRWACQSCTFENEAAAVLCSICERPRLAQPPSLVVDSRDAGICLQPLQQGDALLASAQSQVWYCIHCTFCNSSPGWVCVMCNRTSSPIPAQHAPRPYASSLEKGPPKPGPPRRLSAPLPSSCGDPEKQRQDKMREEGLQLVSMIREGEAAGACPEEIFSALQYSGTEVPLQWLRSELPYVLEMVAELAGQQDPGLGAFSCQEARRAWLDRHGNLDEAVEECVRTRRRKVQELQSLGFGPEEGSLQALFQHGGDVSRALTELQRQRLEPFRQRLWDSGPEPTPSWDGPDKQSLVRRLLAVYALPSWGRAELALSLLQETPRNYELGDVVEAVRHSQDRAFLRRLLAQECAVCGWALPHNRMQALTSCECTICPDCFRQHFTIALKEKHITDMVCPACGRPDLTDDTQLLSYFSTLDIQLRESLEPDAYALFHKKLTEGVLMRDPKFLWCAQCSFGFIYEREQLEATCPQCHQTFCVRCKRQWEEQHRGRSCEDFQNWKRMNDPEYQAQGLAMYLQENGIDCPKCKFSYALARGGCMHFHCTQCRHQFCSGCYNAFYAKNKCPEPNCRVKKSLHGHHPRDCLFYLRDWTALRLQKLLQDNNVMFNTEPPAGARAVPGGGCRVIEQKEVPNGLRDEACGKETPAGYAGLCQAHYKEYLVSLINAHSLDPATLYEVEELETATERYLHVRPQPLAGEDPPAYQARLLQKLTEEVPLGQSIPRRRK
On to I272A, for which the “effect of a mutation on the interaction” value was “disrupting interaction”.
